According to the nanobody polyreactivity screen of Harvey et al. (2022):

Experiment: yeast display, Sf9 membrane polyspecificity reagent, FACS + sequencing; frameworks hold sequencing errors
Procedure, shortened: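 After 36–48 hours of galactose induction, yeast (Saccharomyces cerevisiae BJ5465) displaying a synthetic nanobody library were stained at 4 °C for 1 hour with 10% biotinylated, detergent-solubilized Sf9 membrane reagent. Streptavidin microbeads enriched the stained cells before FACS sorting into low and high (top ~1%) gates on anti-HA and streptavidin fluorescence. Each clone's polyreactivity label reflects its gate of origin.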

Sequence | polyreactivity (PSR sort gate)
QVQHVESGGGLVQAGGSLRLSCAASGRIFEIYAMGWYRPAPGKERYLVAAISWRGVSTYYADSVKGRFTISRDYAKNTVYLQMNSLKPEDTAVFYCNNDVDYFWYVEYDYWGQGTQVTVSS | low polyreactivity
QVQLVESGGGLVQAGGSLRLSCAASGYTFPRYAMGWYRQAPGKERELVATINWTGSNTYADSVKGRFTISRDNAKNTVYLQMNSLKPEDTAVYYCAKDSWNVRSGRYNYWGQGTQVTVSS | low polyreactivity
QVQLVESGGGLVQAGVSLRLSCAASGRTFAYNDMGCYRQAPGKERELVAAISWSDGTTYYADSVKGRFTSSRDNAKNTVYLQMNSLKPEDTAVYYCAAESYPSEVASYVSEYDYWGQGTQVTVSS | low polyreactivity
QVQLVESGGGLVQAGGSLRLSCAASGSTYHYAMGWYRQAPGKERELVASITWRGDTTYYADSVKGRFTISRDNAKNTVYLQMNSLKPEDTAVYYGATVPYSPPSAGPEYDYWGQGTQVTVSS | high polyreactivity
QVQLVESGGGLLQAGGSLRLICAASGFIFVTYAMGLYRQEPGKERELVAAITNSGGTTYYADSVKGRFTISRDNAKNTVYLQMNSLKPEDTAGYYCNKPYGAETAHREFDYWGQGTQVTVSS | low polyreactivity
QVQLVESGGGLVQAGGRLRLSCAASGSTFGTYAMGWYRHAPGKERELVAAITRSGGSTYYADSVKGRFTISRDNAKNTVYLQMNSLKPDDTAVFYCAAVSKGYYYWGQGTQVTVSS | high polyreactivity
QVQLVESGGGLVQAGGSLRLSCAASGSTFYNNAMGWYRQAPGKERELVAAISNVSTYYADSVKGRFTISRDNAKNTVYLQMNSLKPEDTAVYYCAARVLLWYYSWRYYYWGQGTQVTVSS | low polyreactivity
QVQLVESGGGLVQAGGSLRLSCAASGSTFQRNAMGWYRQAPGKERELVAVITRRGASTYYADSVKGRFTISRDYEKNTVYLQMKSLKAEDTAVYYCNKVPYGRDHHLLFDYWGQGTQVTVSS | high polyreactivity
QVQLVESGGGLVQAGGSLRLSCAASGFTFSYYAMGWYRQAPGKERELVARISFSGTRTYYADSVKGRFTISRDNAKNTVYLEMNSLKPEDTAVYYCAARFGYVGITARYDYWGQGTQVTVSS | high polyreactivity
QVQLVESGGGLVQAGGSLRLSCAASGSTFQSYTMGWYRPAPGKERELVAAISSSGGRTYYADSVKGRFTISRDNAKHTVYLQMNSLKPEDTAVYYCAAVTQSWRGATWYDYWGQGTQVTVSS | high polyreactivity
QVQLVESGGGLVQAGGSLRLSCAASGFIIKFYAMGWYRPAPGKERELVAAISWRGGSTYYADSVKGRFTISRDIAKNTVYLQMNSLKPEDTAVYYCNKAGKARYWGRYNYWGQGTQVTVSS | high polyreactivity
QVQHVESGGGLVQAGGSLRLSCAASGSIFTTYAMGWYRQAPGKERELVAAISSGGGTNYADSVKGRFTISRDNAKHTVYLQMNSLKPEDTAVYYCNKRYYRLQLHNAYGATPRRNYWGQGTQVTVSS | low polyreactivity
QVQLVESGGGLVQAGGSLRLSCAASGFTIVHYAMGWYRQAPGKERELVAAITWNGGRTYYADSVKGRFTISRDTAKNTVYLQMNSLKPEDTAVYYCAVRYKSWYGFNYWGQGTQVTVSS | high polyreactivity
QVQLVESGGGLVQAGGSLRLSCAASGRIFTRYVMGWYRPAPGKERELVAGINSGGRTNYADSVKGRFTISRDNAKNTVYLQMNSLKQVDTAVYYCAAGKGRPVGGRAYYYWGHGTQVTVSS | high polyreactivity
QVQLVESGGGLVQAGGSLRLSCAASGSIFPSYAMGWYRQAPGKERELVATIGRGGTTNYADSVKGRFTISRDNAKNTVYLQMNSLKPEDTEVYYCNAERIWRYKYGYDYWGQGTQVTVSS | high polyreactivity
QVQLVESGGGLVQAGGSLRLSCAASGSIFWYNDMGWYRQAPGKEREFVAAITWDDGSTYYADSVKGRFTISRDNAKNTVYLQMNSLKPEDTAVYYCAAYVWYYDPASGWFITDYDYWGQGTQVTVSS | high polyreactivity
QVQLVESGGGLVQAGGSLRLSCAASGRIFGNYAMGWYRQAPGKERELVAAISGGGSTYYADSVKGRFTISRDNAKNTVYLQMNSLKPEDTAVYYCAARFLWSVFGHKGGYWGQGTQVTVSS | low polyreactivity
